From patent US20050053613A1

Target: CD8 on peripheral blood T cells (UniProt P01732)
Experiment: cell-based or functional assay

## gp180, mAb B9 affinity-purified material from T84 cells (from UniProt P06731 35-685)
  killing in a CTL assay testing alloreactive CTL: < 15%
